In PMC10127259:

Assays:
Details in all cases: remark: other sources report otherwise
[1] = biological target: T1, Nt17 peptide (the first 17 amino acids at the N-terminus of huntingtin), P42858; assay: native MS; cVSSI-MS, positive ion mode; Nt17 10 uM incubated with pure POPC vesicles (0% cholesterol), 10:1 lipid:peptide, 24 h at 37 °C, 10 mM ammonium acetate; peak areas normalised to [M + 2H]2+
T1 chain: MATLEKLMKAFESLKSF

[2] = biological target: T1, Nt17 peptide (the first 17 amino acids …); assay: native MS; cVSSI-MS, positive ion mode; Nt17 10 uM incubated with DOPC vesicles with 20% exogenous cholesterol, 10:1 lipid:peptide, 24 h at 37 °C, 10 mM ammonium acetate; peak areas normalised to [M + 2H]2+
[3] = biological target: T1, Nt17 peptide (the first 17 amino acids …); assay: native MS; cVSSI-MS, positive ion mode; Nt17 10 uM incubated with POPC vesicles with 20% exogenous cholesterol, 10:1 lipid:peptide, 24 h at 37 °C, 10 mM ammonium acetate; peak areas normalised to [M + 2H]2+
[4] = biological target: T1, Nt17 peptide (the first 17 amino acids …); assay: native MS; cVSSI-MS, positive ion mode; Nt17 10 uM incubated with POPG vesicles with 20% exogenous cholesterol, 10:1 lipid:peptide, 24 h at 37 °C, 10 mM ammonium acetate; peak areas normalised to [M + 2H]2+
[5] = biological target: T1, Nt17 peptide (the first 17 amino acids …); assay: native MS; cVSSI-MS, positive ion mode; Nt17 10 uM incubated with pure DOPC vesicles (0% cholesterol), 10:1 lipid:peptide, 24 h at 37 °C, 10 mM ammonium acetate; peak areas normalised to [M + 2H]2+

- relative integrated peak area of [2M + 1L] (2 Nt17 + 1 POPC), against [M + 2H]2+ [1]: 1.3%
- relative integrated peak area of [3M + 1L] (3 Nt17 + 1 POPC), against [M + 2H]2+ [1]: 0.8%
- relative peak area of [2M + 3L] (2 Nt17 + 3 DOPC), against [M + 2H]2+ [2]: 0.15%
- total relative peak area of complexes with four peptides, against [M + 2H]2+ [2]: 1.2%
- total relative peak area of complexes with three peptides, against [M + 2H]2+ [2]: 4%
- total relative peak area of complexes with two peptides, against [M + 2H]2+ [2]: 8%
- relative integrated peak area of [2M + 2L] (2 Nt17 + 2 POPC), against [M + 2H]2+ [3]: 0.11%
- relative integrated peak area of [3M + 1L] (3 Nt17 + 1 POPC), against [M + 2H]2+ [3]: 1.1%
- total relative integrated peak area of complexes with two peptides, against [M + 2H]2+ [3]: 2.7%
- relative peak area of [2M + 2L] (2 Nt17 + 2 POPG), against [M + 2H]2+ [4]: 23%
- relative peak area of [2M + 3L] (2 Nt17 + 3 POPG), against [M + 2H]2+ [4]: 0.6%
- stoichiometry N [4]: 2
- relative peak area of [2M + 3L] (2 Nt17 + 3 DOPC), against [M + 2H]2+ [5]: 0.45%
- relative peak area of [3M + 1L] (3 Nt17 + 1 DOPC), against [M + 2H]2+ [5]: 3.3%
- relative peak area of [4M + 1L] (4 Nt17 + 1 DOPC), against [M + 2H]2+ [5]: 0.98%
- total relative peak area of complexes with three peptides, against [M + 2H]2+ [5]: 3.6%
- total relative peak area of complexes with two peptides, against [M + 2H]2+ [5]: 10.3%
B1: Nt17 peptide (the first 17 amino acids at the N-terminus of huntingtin), P42858 1-17 (peptide)
peptide: MATLEKLMKAFESLKSF
